Reference: patent US20060189528A1 (EVOGENIX, published 2006)

T1: RANKL (human, UniProt O14788 140-317, limits assumed)
T1 construct: also called Rank ligand
T1 sequence (looked up): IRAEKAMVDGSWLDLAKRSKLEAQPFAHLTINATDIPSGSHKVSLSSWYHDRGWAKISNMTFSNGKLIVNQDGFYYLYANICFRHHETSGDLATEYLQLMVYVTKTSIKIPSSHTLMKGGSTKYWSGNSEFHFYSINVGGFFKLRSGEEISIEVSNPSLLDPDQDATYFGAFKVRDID


Tests used:
TRAIL = molecular target: T2, TRAIL (human, UniProt P50591 114-281); experiment: ELISA on coated TRAIL, Fc-linked dimers; EC50 ratio to OPG(22-194).Fc wt; reduction in binding (higher EC50)
T2 construct: also called TNF-related apoptosis inducing ligand; recombinant human TRAIL (R&D Systems)
T2 sequence (P50591 114-281 limits assumed): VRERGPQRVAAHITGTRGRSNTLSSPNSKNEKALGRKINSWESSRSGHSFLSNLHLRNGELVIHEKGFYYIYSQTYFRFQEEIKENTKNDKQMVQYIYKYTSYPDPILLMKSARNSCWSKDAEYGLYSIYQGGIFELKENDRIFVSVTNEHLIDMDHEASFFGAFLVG
Procedure: (§1) Purified mammalian-expressed OVP proteins are tested for binding to RANKL and TRAIL by ELISA. Wells are coated with RANKL at 5 μg/mL or TRAIL at 10 μg/mL in PBS O/N at 4° C., rinsed with PBS, blocked with 0.5% casein in PBS at room temp for 2 h, then rinsed again with PBS. Concentrations of OVPs to be tested are normalised to around 10 nM and then 50 μL applied to the antigen-coated wells in serial doubling dilutions over 6-7 wells for 1 h. […] All washes in between binding incubations are 3 times in PBS/0.05% Tween, then 3 times with PBS. Detection of bound OVPs is achieved with incubation of 50 μL anti-FLAG at […] for 20 min then 50 μL goat anti-mouse-peroxidase conjugate (BioRad) at 1:1500 for 20 min. TMB is used as enzyme substrate and then binding signal is measured at A_{450 nm}.

RANKL [1] = molecular target: T1, RANKL; experiment: ELISA on coated RANKL, Fc-linked dimers; EC50 ratio to OPG(22-194).Fc wt; increase in binding (lower EC50)
Procedure: as §1

RANKL [2] = molecular target: T1, RANKL; experiment: ELISA on coated RANKL, Fc-linked dimers; EC50 ratio to OPG(22-194).Fc wt; reduction in binding (higher EC50)
Procedure: as §1

Binder	TRAIL fold change cf wt (TRAIL) [fold]	RANKL fold change cf wt (RANKL [1]) [fold]	RANKL fold change cf wt (RANKL [2]) [fold]
OVP I115A (Fc fusion, Tested as C-terminal Fc-linked dimer with FLAG tag, from HEK 293 EBNA cells; signal peptide 1-21 processed; not shown: human Fc domain of vector pAPEX-3.Fc; C-terminal FLAG tag) ETFPPKYLHYDEETSHQLLCDKCPPGTYLKQHCTAKWKTVCAPCPDHYYTDSWHTSDECLYCSPVCKELQYVKQECNRTHNRVCECKEGRYLEAEFCLKHRSCPPGFGVVQAGTPERNTVCKRCPDGFFSNETSSKAPCRKHTNCSVFGLLLTQKGNATHDNICSGNSESTQK	2.5	2.25	–
OVP I115D (Fc fusion, Tested as C-terminal Fc-linked dimer with FLAG tag, from HEK 293 EBNA cells; signal peptide 1-21 processed; not shown: human Fc domain of vector pAPEX-3.Fc; C-terminal FLAG tag) ETFPPKYLHYDEETSHQLLCDKCPPGTYLKQHCTAKWKTVCAPCPDHYYTDSWHTSDECLYCSPVCKELQYVKQECNRTHNRVCECKEGRYLEDEFCLKHRSCPPGFGVVQAGTPERNTVCKRCPDGFFSNETSSKAPCRKHTNCSVFGLLLTQKGNATHDNICSGNSESTQK	> 125	1.5	–
OVP I115E (Fc fusion, Tested as C-terminal Fc-linked dimer with FLAG tag, from HEK 293 EBNA cells; signal peptide 1-21 processed; not shown: human Fc domain of vector pAPEX-3.Fc; C-terminal FLAG tag) ETFPPKYLHYDEETSHQLLCDKCPPGTYLKQHCTAKWKTVCAPCPDHYYTDSWHTSDECLYCSPVCKELQYVKQECNRTHNRVCECKEGRYLEEEFCLKHRSCPPGFGVVQAGTPERNTVCKRCPDGFFSNETSSKAPCRKHTNCSVFGLLLTQKGNATHDNICSGNSESTQK	> 250	–	2.25
OVP I115L (Fc fusion, Tested as C-terminal Fc-linked dimer with FLAG tag, from HEK 293 EBNA cells; signal peptide 1-21 processed; not shown: human Fc domain of vector pAPEX-3.Fc; C-terminal FLAG tag) ETFPPKYLHYDEETSHQLLCDKCPPGTYLKQHCTAKWKTVCAPCPDHYYTDSWHTSDECLYCSPVCKELQYVKQECNRTHNRVCECKEGRYLELEFCLKHRSCPPGFGVVQAGTPERNTVCKRCPDGFFSNETSSKAPCRKHTNCSVFGLLLTQKGNATHDNICSGNSESTQK	4.3	1.75	–
OVP I115M (Fc fusion, Ribosome display selected; tested as C-terminal Fc-linked dimer with FLAG tag, from HEK 293 EBNA cells; signal peptide 1-21 processed; also called 1R17; not shown: human Fc domain of vector pAPEX-3.Fc; C-terminal FLAG tag) ETFPPKYLHYDEETSHQLLCDKCPPGTYLKQHCTAKWKTVCAPCPDHYYTDSWHTSDECLYCSPVCKELQYVKQECNRTHNRVCECKEGRYLEMEFCLKHRSCPPGFGVVQAGTPERNTVCKRCPDGFFSNETSSKAPCRKHTNCSVFGLLLTQKGNATHDNICSGNSESTQK	25	1.2	–
OVP I115M, F128A (Fc fusion, Tested as C-terminal Fc-linked dimer with FLAG tag, from HEK 293 EBNA cells; signal peptide 1-21 processed; also called I115M plus: F128A; not shown: human Fc domain of vector pAPEX-3.Fc; C-terminal FLAG tag) ETFPPKYLHYDEETSHQLLCDKCPPGTYLKQHCTAKWKTVCAPCPDHYYTDSWHTSDECLYCSPVCKELQYVKQECNRTHNRVCECKEGRYLEMEFCLKHRSCPPGAGVVQAGTPERNTVCKRCPDGFFSNETSSKAPCRKHTNCSVFGLLLTQKGNATHDNICSGNSESTQK	2	1.2	–
OVP I115M, F128T (Fc fusion, Tested as C-terminal Fc-linked dimer with FLAG tag, from HEK 293 EBNA cells; signal peptide 1-21 processed; also called I115M plus: F128T; not shown: human Fc domain of vector pAPEX-3.Fc; C-terminal FLAG tag) ETFPPKYLHYDEETSHQLLCDKCPPGTYLKQHCTAKWKTVCAPCPDHYYTDSWHTSDECLYCSPVCKELQYVKQECNRTHNRVCECKEGRYLEMEFCLKHRSCPPGTGVVQAGTPERNTVCKRCPDGFFSNETSSKAPCRKHTNCSVFGLLLTQKGNATHDNICSGNSESTQK	7	–	3.3
OVP I115M, L40S (Fc fusion, Tested as C-terminal Fc-linked dimer with FLAG tag, from HEK 293 EBNA cells; signal peptide 1-21 processed; also called R23; not shown: human Fc domain of vector pAPEX-3.Fc; C-terminal FLAG tag) ETFPPKYLHYDEETSHQLSCDKCPPGTYLKQHCTAKWKTVCAPCPDHYYTDSWHTSDECLYCSPVCKELQYVKQECNRTHNRVCECKEGRYLEMEFCLKHRSCPPGFGVVQAGTPERNTVCKRCPDGFFSNETSSKAPCRKHTNCSVFGLLLTQKGNATHDNICSGNSESTQK	> 250	1.1	–
OVP I115M, N139D (Fc fusion, Tested as C-terminal Fc-linked dimer with FLAG tag, from HEK 293 EBNA cells; signal peptide 1-21 processed; not shown: human Fc domain of vector pAPEX-3.Fc; C-terminal FLAG tag) ETFPPKYLHYDEETSHQLLCDKCPPGTYLKQHCTAKWKTVCAPCPDHYYTDSWHTSDECLYCSPVCKELQYVKQECNRTHNRVCECKEGRYLEMEFCLKHRSCPPGFGVVQAGTPERDTVCKRCPDGFFSNETSSKAPCRKHTNCSVFGLLLTQKGNATHDNICSGNSESTQK	60	–	1.75
OVP I115M, R122D (Fc fusion, Tested as C-terminal Fc-linked dimer with FLAG tag, from HEK 293 EBNA cells; signal peptide 1-21 processed; also called I115M plus: R122D; not shown: human Fc domain of vector pAPEX-3.Fc; C-terminal FLAG tag) ETFPPKYLHYDEETSHQLLCDKCPPGTYLKQHCTAKWKTVCAPCPDHYYTDSWHTSDECLYCSPVCKELQYVKQECNRTHNRVCECKEGRYLEMEFCLKHDSCPPGFGVVQAGTPERNTVCKRCPDGFFSNETSSKAPCRKHTNCSVFGLLLTQKGNATHDNICSGNSESTQK	23	–	6
OVP I115M, R122E (Fc fusion, Tested as C-terminal Fc-linked dimer with FLAG tag, from HEK 293 EBNA cells; signal peptide 1-21 processed; also called I115M plus: R122E; not shown: human Fc domain of vector pAPEX-3.Fc; C-terminal FLAG tag) ETFPPKYLHYDEETSHQLLCDKCPPGTYLKQHCTAKWKTVCAPCPDHYYTDSWHTSDECLYCSPVCKELQYVKQECNRTHNRVCECKEGRYLEMEFCLKHESCPPGFGVVQAGTPERNTVCKRCPDGFFSNETSSKAPCRKHTNCSVFGLLLTQKGNATHDNICSGNSESTQK	> 250	–	1.2
OVP I115M, R122N (Fc fusion, Tested as C-terminal Fc-linked dimer with FLAG tag, from HEK 293 EBNA cells; signal peptide 1-21 processed; also called I115M plus: R122N; not shown: human Fc domain of vector pAPEX-3.Fc; C-terminal FLAG tag) ETFPPKYLHYDEETSHQLLCDKCPPGTYLKQHCTAKWKTVCAPCPDHYYTDSWHTSDECLYCSPVCKELQYVKQECNRTHNRVCECKEGRYLEMEFCLKHNSCPPGFGVVQAGTPERNTVCKRCPDGFFSNETSSKAPCRKHTNCSVFGLLLTQKGNATHDNICSGNSESTQK	> 250	–	1.1
OVP I115M, R122Q (Fc fusion, Tested as C-terminal Fc-linked dimer with FLAG tag, from HEK 293 EBNA cells; signal peptide 1-21 processed; also called I115M plus: R122Q; not shown: human Fc domain of vector pAPEX-3.Fc; C-terminal FLAG tag) ETFPPKYLHYDEETSHQLLCDKCPPGTYLKQHCTAKWKTVCAPCPDHYYTDSWHTSDECLYCSPVCKELQYVKQECNRTHNRVCECKEGRYLEMEFCLKHQSCPPGFGVVQAGTPERNTVCKRCPDGFFSNETSSKAPCRKHTNCSVFGLLLTQKGNATHDNICSGNSESTQK	3	2.5	–
OVP I115M, R122S (Fc fusion, Tested as C-terminal Fc-linked dimer with FLAG tag, from HEK 293 EBNA cells; signal peptide 1-21 processed; also called I115M plus: R122S; not shown: human Fc domain of vector pAPEX-3.Fc; C-terminal FLAG tag) ETFPPKYLHYDEETSHQLLCDKCPPGTYLKQHCTAKWKTVCAPCPDHYYTDSWHTSDECLYCSPVCKELQYVKQECNRTHNRVCECKEGRYLEMEFCLKHSSCPPGFGVVQAGTPERNTVCKRCPDGFFSNETSSKAPCRKHTNCSVFGLLLTQKGNATHDNICSGNSESTQK	3.5	1.5	–
OVP I115S (Fc fusion, Tested as C-terminal Fc-linked dimer with FLAG tag, from HEK 293 EBNA cells; signal peptide 1-21 processed; not shown: human Fc domain of vector pAPEX-3.Fc; C-terminal FLAG tag) ETFPPKYLHYDEETSHQLLCDKCPPGTYLKQHCTAKWKTVCAPCPDHYYTDSWHTSDECLYCSPVCKELQYVKQECNRTHNRVCECKEGRYLESEFCLKHRSCPPGFGVVQAGTPERNTVCKRCPDGFFSNETSSKAPCRKHTNCSVFGLLLTQKGNATHDNICSGNSESTQK	3.1	–	1.4
OVP I115T, K51R, R111H (Fc fusion, Tested as C-terminal Fc-linked dimer with FLAG tag, from HEK 293 EBNA cells; signal peptide 1-21 processed; not shown: human Fc domain of vector pAPEX-3.Fc; C-terminal FLAG tag) ETFPPKYLHYDEETSHQLLCDKCPPGTYLRQHCTAKWKTVCAPCPDHYYTDSWHTSDECLYCSPVCKELQYVKQECNRTHNRVCECKEGHYLETEFCLKHRSCPPGFGVVQAGTPERNTVCKRCPDGFFSNETSSKAPCRKHTNCSVFGLLLTQKGNATHDNICSGNSESTQK	7.5	1.5	–
OVP I115T, K51R, S167G (Fc fusion, Tested as C-terminal Fc-linked dimer with FLAG tag, from HEK 293 EBNA cells; signal peptide 1-21 processed; not shown: human Fc domain of vector pAPEX-3.Fc; C-terminal FLAG tag) ETFPPKYLHYDEETSHQLLCDKCPPGTYLRQHCTAKWKTVCAPCPDHYYTDSWHTSDECLYCSPVCKELQYVKQECNRTHNRVCECKEGRYLETEFCLKHRSCPPGFGVVQAGTPERNTVCKRCPDGFFSNETSSKAPCRKHTNCGVFGLLLTQKGNATHDNICSGNSESTQK	15	1.5	–
OVP I115V (Fc fusion, Tested as C-terminal Fc-linked dimer with FLAG tag, from HEK 293 EBNA cells; signal peptide 1-21 processed; not shown: human Fc domain of vector pAPEX-3.Fc; C-terminal FLAG tag) ETFPPKYLHYDEETSHQLLCDKCPPGTYLKQHCTAKWKTVCAPCPDHYYTDSWHTSDECLYCSPVCKELQYVKQECNRTHNRVCECKEGRYLEVEFCLKHRSCPPGFGVVQAGTPERNTVCKRCPDGFFSNETSSKAPCRKHTNCSVFGLLLTQKGNATHDNICSGNSESTQK	4	1.5	–
OVP I115W (Fc fusion, Tested as C-terminal Fc-linked dimer with FLAG tag, from HEK 293 EBNA cells; signal peptide 1-21 processed; not shown: human Fc domain of vector pAPEX-3.Fc; C-terminal FLAG tag) ETFPPKYLHYDEETSHQLLCDKCPPGTYLKQHCTAKWKTVCAPCPDHYYTDSWHTSDECLYCSPVCKELQYVKQECNRTHNRVCECKEGRYLEWEFCLKHRSCPPGFGVVQAGTPERNTVCKRCPDGFFSNETSSKAPCRKHTNCSVFGLLLTQKGNATHDNICSGNSESTQK	5	–	1.4
OVP I115Y (Fc fusion, Tested as C-terminal Fc-linked dimer with FLAG tag, from HEK 293 EBNA cells; signal peptide 1-21 processed; not shown: human Fc domain of vector pAPEX-3.Fc; C-terminal FLAG tag) ETFPPKYLHYDEETSHQLLCDKCPPGTYLKQHCTAKWKTVCAPCPDHYYTDSWHTSDECLYCSPVCKELQYVKQECNRTHNRVCECKEGRYLEYEFCLKHRSCPPGFGVVQAGTPERNTVCKRCPDGFFSNETSSKAPCRKHTNCSVFGLLLTQKGNATHDNICSGNSESTQK	3	1.1	–
